B1: HDV Ribozyme (parent)
chain: GGCCGGCAUGGUCCCAGCCUCCUCGCUGGCGCCGGCUGGGCAACAUUCCGAGGGGACCGUCCCCUCGGUAAUGGCGAAUGGGACCCA

Variants of: B1
Assay: self-cleavage, relative activity (ratio to wild type); higher = more cleavage; co-transcriptional

In order of falling self-cleavage:
1. U12G C14U  1.2
2. U12G U65A  1.06
3. U12G A70U  1.02
4. U12G U69A  0.997
5. U12G C41U  0.982
6. U12G G59U  0.973
7. U12G U79A  0.939
8. U12G G52C  0.937
9. U12G C49A  0.935
10. U12G C66A  0.923
11. U12G C64U  0.914
12. U12G A83U  0.867
13. C13U C57U  0.853
14. U12G C57U  0.831
15. C13U A16C  0.8
16. U12G G50A  0.787
17. U12G G68U  0.779
18. U12G U47A  0.776
19. U12G C58U  0.751
20. U12G G55U  0.748
21. U12G U46G  0.692
22. C13A C26G  0.657
23. U12G U79G  0.639
24. C13A C26A  0.623
25. U12G C44U  0.598
26. C13G G82C  0.582
27. C13A A16U  0.536
28. U12G C58G  0.499
29. C13U C15A  0.482
30. U12G G17U  0.475
31. U12G C62G  0.437
32. U12G C13A  0.415
33. U12G C32U  0.399
34. C13U C14G  0.391
35. U12G C85G  0.369
36. C13U A45C  0.365
37. C13G C26A  0.35
38. U12G U46A  0.332
39. C13A C62G  0.287
40. C13A G50C  0.283
41. C13A U23C  0.271
42. C13G U27C  0.262
43. U12G U23G  0.256
44. C13A C86U  0.242
45. C13A G59C  0.237
46. C13A G52U  0.225
47. C13G A83C  0.222
48. C13A U65G  0.208
49. C13A G76A  0.199
50. C13A C85A  0.19
51. C13A C57A  0.185
52. C13G A78U  0.185
53. C13U A83U  0.185
54. C13A C14U  0.18
55. C13G U46C  0.18
56. U12G G38C  0.178
57. C13A C33G  0.175
58. C13A A51U  0.172
59. C13A G28U  0.172
60. C13U C32A  0.172
61. C13G U37A  0.17
62. C13A C18A  0.169
63. C13A G17U  0.169
64. C13A A70G  0.166
65. C13A C61A  0.163
66. C13A A45G  0.158
67. C13A A56C  0.156
68. C13A C58A  0.155
69. C13A C63A  0.155
70. C13U C14A  0.155
71. C13A A43U  0.154
72. C13G C86U  0.151
73. C13G U23A  0.151
74. C13G G59A  0.148
75. C13A C24U  0.145
76. C13A A42G  0.142
77. C13A A83U  0.142
78. C13G C21U  0.141
79. C13A U23A  0.138
80. C13G C18G  0.138
81. C13G C64G  0.138
82. U12G C24G  0.136
83. C13A A71C  0.135
84. C13A G53C  0.133
85. C13G C63G  0.133
86. C13A U37C  0.131
87. C13G C22G  0.131
88. C13G G74C  0.128
89. C13A G35U  0.125
90. C13A G68U  0.125
91. C13G G52A  0.125
92. U12G C21U  0.123
93. C13G A70U  0.123
94. C13G G53C  0.123
95. C13U A83G  0.122
96. C13A U79A  0.119
97. C13G A78G  0.111
98. C13G U69G  0.111
99. C13U C30A  0.102
100. C13G G67U  0.101
101. C13G U65A  0.101
102. C13G G80C  0.0997
103. C13A C14G  0.0978
104. C13G C26G  0.0978
105. C13A C61G  0.0959
106. C13G U65C  0.095
107. C13A G28A  0.0875
108. C13G C18U  0.0875
109. C13G C61G  0.0852
110. C13A A42U  0.0845
111. C13G G59U  0.0811
112. U12G G34A  0.0791
113. U12G G80C  0.0791
114. C13G C19G  0.0791
115. U12G G38U  0.0755
116. C13G A51C  0.0723
117. C13G C21G  0.0723
118. C13G C62A  0.0692
119. C13G G17A  0.0652
120. U12G C32A  0.0639
121. C13A C58G  0.0639
122. C13A C30A  0.0594
123. C13A G31A  0.0594
124. C13G C24A  0.0594
125. U12G G25U  0.0573
126. U12G U20A  0.0573
127. U12G U37A  0.0554
128. C13A G39C  0.0554
129. C13G U46G  0.0554
130. C13G U72A  0.0536
131. C13A C41G  0.0504
132. C13G C24U  0.0504
133. C13G G38C  0.0504
134. C13A C49A  0.0489
135. C13G A56C  0.0489
136. C13G G52C  0.0475
137. C13G G80U  0.0475
138. C13A A77C  0.0462
139. C13G C33G  0.0462
140. C13G C36A  0.0449
141. C13G G50U  0.0426
142. C13G G29C  0.0415
143. C13G C36U  0.0369
144. C13G C22A  0.0361
145. C13G G82U  0.0361
146. C13G A45U  0.0346
147. C13G G39A  0.0332
148. C13A C30G  0.0282
149. U12G A77C  0
150. U12G C15G  0
151. U12G C30G  0
152. U12G C33G  0
153. U12G C75A  0
154. C13A A71G  0
155. C13A A77G  0
156. C13A G29C  0
157. C13A G31C  0
158. C13A G81C  0
159. C13G A71G  0
160. C13G A71U  0
161. C13G C49U  0
162. C13G G25A  0
163. C13G G76A  0
164. C13G G80A  0
165. C13G U23C  0
166. C13G U60G  0
167. C13U A78U  0

From the RNAGym collection of RNA variant scans (doi:10.7554/elife.80360)
